Drawing on paper PMC9313131, this text covers Kd and stoichiometry N for nine substances.

The target of assay [1] is CDC37 (cell division cycle 37), wild type, full-length (human) (UniProt Q16543). Put plainly: ITC; in most cases sBRAF construct at 350 μM injected into 30 μM CDC37 at 20 °C; 20 mM Tris pH 7.5, 1 mM EDTA, 200 mM NaCl; ITC200. Background: ITC needs no label: the signal is the heat of the interaction.
Assay [2] addresses sBRAF L597R (human) (UniProt P15056). The assay is described as follows: SEC; Superdex 200 Increase 10/300 GL; 50 mM HEPES pH 7.5, 300 mM NaCl, 0.5 mM TCEP, 1 mM EDTA; relative molecular mass against gel-filtration standards. In general terms: In gel filtration, larger molecules generally elute earlier.

By Kd is commonly meant the constant that tells how readily two partners part at equilibrium. The low end stands for a tighter complex, the high end for a looser complex. Broadly, the stoichiometry N is a count of units in the complex or per binding partner.

CDC37 (cell division cycle 37), wild type, full-length (human), sequence (Q16543 whole entry): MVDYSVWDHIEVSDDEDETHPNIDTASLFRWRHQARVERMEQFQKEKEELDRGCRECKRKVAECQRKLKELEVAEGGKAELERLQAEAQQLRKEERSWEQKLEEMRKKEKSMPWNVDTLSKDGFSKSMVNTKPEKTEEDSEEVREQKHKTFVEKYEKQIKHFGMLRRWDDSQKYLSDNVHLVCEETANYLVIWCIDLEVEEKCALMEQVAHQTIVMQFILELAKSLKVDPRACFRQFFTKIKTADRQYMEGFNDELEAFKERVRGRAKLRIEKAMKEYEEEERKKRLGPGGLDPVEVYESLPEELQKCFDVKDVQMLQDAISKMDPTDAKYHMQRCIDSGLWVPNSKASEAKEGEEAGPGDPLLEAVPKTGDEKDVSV

As to “sBRAF D594V (from UniProt P15056 423-723) (domain or fragment)”, the Kd in assay [1] worked out at 1200 nM. This counts as single-digit micromolar.

In assay [1], “sBRAF F595A (from UniProt P15056 423-723) (domain or fragment)” gave a Kd of 500 nM. Compared with the last substance, the Kd is about 2.4-fold lower. On the same count and under the same terms, then “sBRAF F595V (from UniProt P15056 423-723) (domain or fragment)”, with 1400 nM; and “sBRAF L597A (from UniProt P15056 423-723) (domain or fragment)”, with 230 nM. In turn, “sBRAF L597R (from UniProt P15056 423-723) (domain or fragment)” returned a stoichiometry N in assay [2] of 2. Consider “sBRAF L597R-V600E (from UniProt P15056 423-723) (domain or fragment)”, for which, in assay [1], the Kd was determined as 340 nM. On the same count and under the same terms, the result for “sBRAF T599E-V600E-S602D (from UniProt P15056 423-723) (domain or fragment)” reads 470 nM; that for “sBRAF T599W-V600E (from UniProt P15056 423-723) (domain or fragment)”, 230 nM; that for “sBRAF, solubilized version of BRAF kinase domain (residues 423-723), V600 background (from UniProt P15056 423-723) (domain or fragment)”, 1000 nM.
